This assay has as its target fluorescein-labeled HMGB1 (full-length) (rat) (UniProt P63159). Kind of assay: fluorescence polarisation.

From paper PMC5087801 come the findings set out here.

Chain of UniProt P63159 (P63159 whole entry): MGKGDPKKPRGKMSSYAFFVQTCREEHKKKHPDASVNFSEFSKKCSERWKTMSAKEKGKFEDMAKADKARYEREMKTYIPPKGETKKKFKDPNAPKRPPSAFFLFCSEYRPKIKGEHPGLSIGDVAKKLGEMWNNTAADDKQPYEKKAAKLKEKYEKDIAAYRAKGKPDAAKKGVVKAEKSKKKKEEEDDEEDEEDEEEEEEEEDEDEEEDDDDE

By Kd is commonly meant the free concentration of one partner at which half of the binding sites on the other are occupied at equilibrium, for simple one-to-one binding. The low end stands for tighter binding, the high end for weaker binding. In the case of “Danio rerio TLR5-N14VLR (drTLR5) (receptor)”, the dissociation constant (Kd) turned out to be 2.9 µM.
